Experimental data published in patent publication US20220193237A1 (Bristol-Myers Squibb, published 2022).
Changes are numbered by the printed parent chain. Numbers in names are those of the source. Read-outs that look alike come from different tables or passages of the source.

Key:
[1] = molecular target: T1, human CTLA-4 on 58 α-β-CTLA-4/CD3 ζ cells (human; mouse (mCD3ζ)); assay: flow cytometry (GMFI), full-length IgG on 58 α-β-CTLA-4/CD3 ζ cells, pH 6.6
T1 construct: also called 58αβ-hCTLA4/mCD3ζ cells; 58αβ-CTLA4/mCD3ζ cells

[2] = molecular target: T1, human CTLA-4 on 58 α-β-CTLA-4/CD3 ζ …; assay: flow cytometry (GMFI), full-length IgG on 58 α-β-CTLA-4/CD3 ζ cells, pH 6.3
monomeric human CTLA-4 [3] = molecular target: T2, monomeric human CTLA-4 (human, UniProt P16410 36-161, limits assumed); assay: SPR, captured Fab, pH 6.0
T2 construct: Soluble monomeric analyte in SPR; also called huCTLA-4
T2 sequence: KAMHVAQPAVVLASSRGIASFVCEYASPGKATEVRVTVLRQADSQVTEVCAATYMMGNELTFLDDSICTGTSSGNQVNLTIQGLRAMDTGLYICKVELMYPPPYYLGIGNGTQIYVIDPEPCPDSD
Procedure: (§1) Unless otherwise indicated, experiments were performed with a BIACORE® SPR surface plasmon resonance spectrometer (Biacore AB, Uppsala, Sweden). Antibodies were tested as monovalent Fab fragments to simplify analysis.
(§2) Monomeric human CTLA-4 was flowed as analyte with up to 2 μM top concentration. Between cycles, the capture surface was regenerated with 75 mM phosphoric acid. Experiments were run on a BIACORE® T200 instrument at 37° C. Running buffers were HEPES buffered saline for pH 7.4 experiments and Bis-Tris buffered saline for lower pH experiments. […] Double referenced sensorgrams were fitted to a 1:1 Langmuir binding model with mass transport to determine equilibrium dissociation constants (KD), as well as association (kₐ) and dissociation (kd) rate constants where appropriate.

monomeric human CTLA-4 [4] = molecular target: T2, monomeric human CTLA-4; assay: SPR, captured Fab, pH 6.0 vs 7.4
Procedure: (§3) Binding of selected variants to human CTLA-4 was determined essentially as described in Example 3. […] Nomenclature and sequences for these antibodies is provided at Tables 6 and 7, and in the sequence listing as summarized at Table 8.
as §2

monomeric human CTLA-4 [5] = molecular target: T2, monomeric human CTLA-4; assay: SPR, captured Fab, pH 6.0 vs 7.4; remark: listed apart in the source
Procedure: as §1, §2

monomeric human CTLA-4 [6] = molecular target: T2, monomeric human CTLA-4; assay: SPR, captured Fab, pH 7.4
Procedure: as §1, §2

monomeric human CTLA-4 [7] = molecular target: T2, monomeric human CTLA-4; assay: SPR, captured Fab, pH 6.0; remark: listed apart in the source
Procedure: as §3, §2

monomeric human CTLA-4 [8] = molecular target: T2, monomeric human CTLA-4; assay: SPR, captured Fab, pH 7.4; remark: listed apart in the source
Procedure: as §3, §2

[9] = molecular target: T1, human CTLA-4 on 58 α-β-CTLA-4/CD3 ζ …; assay: cell-based or functional assay
[10] = molecular target: T1, human CTLA-4 on 58 α-β-CTLA-4/CD3 ζ …; assay: flow cytometry, non-fucosylated IgG1 on 58αβ-CTLA4/mCD3ζ cells, pH 6.2
Procedure: (§4) Antibodies were titrated from 100 μg/mL at a 1:4 dilution across 12 points in pH-specific buffers and incubated for 30-60 minutes. Buffers contained HBSS, 2% FBS^HI, 0.02% sodium azide, 2 mM EDTA, and sodium phosphate buffer (pH 5.4). Sodium phosphate buffer was added until desired pH was reached (7.2, 6.7, 6.2). Approximately 3e5 cells/well were tested for each cell line. […] Detection was done with a monovalent anti-hKappa secondary nanobody conjugated to Alexa647 and used at a dilution of 1:2000. Cells were fixed with BD Fix Solution I for 30 minutes prior to resuspension in pH-specific buffers and reading on the cytometer (BD Fortessa).

[11] = molecular target: T1, human CTLA-4 on 58 α-β-CTLA-4/CD3 ζ …; assay: cell-based or functional assay; remark: listed apart in the source
[12] = molecular target: T1, human CTLA-4 on 58 α-β-CTLA-4/CD3 ζ …; assay: flow cytometry, non-fucosylated IgG1 on 58αβ-CTLA4/mCD3ζ cells, pH 7.2
Procedure: as §4

[13] = molecular target: T1, human CTLA-4 on 58 α-β-CTLA-4/CD3 ζ …; assay: flow cytometry, non-fucosylated IgG1 on 58αβ-CTLA4/mCD3ζ cells, pH 6.7
Procedure: as §4

[14] = molecular target: T1, human CTLA-4 on 58 α-β-CTLA-4/CD3 ζ …; assay: cell-based or functional assay; remark: listed apart in the source

B1: ipi.95 (full-length IgG) (antibody, V domains shown)
VH: QVQLVESGGGVVQPGRSLRLSCAASGFTFSHYTMHWVRQAPGKGLEWVTFISYDGHNKYYADSVKGRFTISRDNSKNTLYLQMNSLRAEDTAIYYCARTGWLGPFDYWGQGTLVTVSS
VL: EIVLTQSPGTLSLSPGERATLSCRASQEVGDSELAWYQQKPGQAPRLLIYGAFSRATGIPDRFSGSGSGTDFTLTISRLEPEDFAVYYCQQYGSSPWTFGQGTKVEIKR
notes: Full-length bivalent IgG (human IgG1); heavy chain entry is without the C-terminal lysine
[1]
  EC50 (read off the curve): ~1 nM
[2]
  EC50 (read off the curve): ~1 nM

B2: ipi.1 Fab (Fab, V domains shown)
VH: B1 VH with H31S, T33H, H56N
VL: not shown
notes: Tested as monovalent Fab; also called T33H (Kabat)
Monomeric human CTLA-4 [3]
  Kd: 20 nM
  koff: 0.011 s⁻¹
  kon: 560000 M⁻¹ s⁻¹
Monomeric human CTLA-4 [4]
  KD 7.4/6 (APBP): 1.1
  ka 6/7.4: 1.1
  t1/2 6/7.4: 1
Monomeric human CTLA-4 [5]
  KD 7.4/6 (APBP): 1.2
Monomeric human CTLA-4 [6]
  Kd: 17 nM
  koff: 0.011 s⁻¹
  kon: 650000 M⁻¹ s⁻¹
Monomeric human CTLA-4 [7]
  Kd: 7.7 nM
  kon: 960000 M⁻¹ s⁻¹
  t1/2: 1.57 min
Monomeric human CTLA-4 [8]
  Kd: 8.6 nM
  kon: 840000 M⁻¹ s⁻¹
  t1/2: 1.6 min

B3: ipi.101, non-fucosylated IgG1 (antibody, V domains shown)
VH: B1 VH
VL: not shown
modifications: non-fucosylated N-linked glycan
notes: Non-fucosylated full-length human IgG1; also called Ipi.101 IgG1-NF
[9]
  IC50 (read off the curve), mIL-2 secretion, 58αβ-hCTLA/mCD3ζ:rhB7-1 blocking assay, 18 h, pH 7.2: ~1 nM
[10]
  Cmax (MFI): 121000 MFI
  EC50: 3.52 nM
[11]
  IC50 (read off the curve), mIL-2 secretion, 58αβ-hCTLA/mCD3ζ:rhB7-1 blocking assay, 18 h, pH 6.8: ~0.7 nM
[12]
  Cmax (MFI): 124000 MFI
  EC50: 3.81 nM
[13]
  Cmax (MFI): 126000 MFI
  EC50: 4.06 nM
[14]
  IC50 (read off the curve), mIL-2 secretion, 58αβ-hCTLA/mCD3ζ:rhB7-1 blocking assay, 18 h, pH 7.0: ~1 nM

B4: ipi.2 Fab (Fab, V domains shown)
VH: B1 VH with H31S, H56N, N57H
VL: not shown
notes: Tested as monovalent Fab; also called N56H (Kabat)
Monomeric human CTLA-4 [3]
  Kd: 13 nM
  koff: 0.0065 s⁻¹
  kon: 490000 M⁻¹ s⁻¹
Monomeric human CTLA-4 [4]
  KD 7.4/6 (APBP): 0.9
  ka 6/7.4: 1.4
  t1/2 6/7.4: 0.6
Monomeric human CTLA-4 [5]
  KD 7.4/6 (APBP): 0.8
Monomeric human CTLA-4 [6]
  Kd: 16 nM
  koff: 0.011 s⁻¹
  kon: 670000 M⁻¹ s⁻¹
Monomeric human CTLA-4 [7]
  Kd: 6.8 nM
  kon: 1.2e+06 M⁻¹ s⁻¹
  t1/2: 1.38 min
Monomeric human CTLA-4 [8]
  Kd: 5.8 nM
  kon: 880000 M⁻¹ s⁻¹
  t1/2: 2.27 min
